Among the data in article PMC11263335 are percent of SHC eluting between 158 and 440 kDa and stoichiometry N values, retold here.

Assay [1] concerns the target shrimp hemocyanin (SHC) from Litopenaeus vannamei (Litopenaeus vannamei) (UniProt Q26180). Description: SEC; purified SHC dissolved in PBS, Superdex-200 column, size by standard proteins.
The target is the same in assay [2]. Description: SEC + other: transmission electron microscopy (uranyl acetate stain); purified SHC in PBS; Superdex-200 elution and particle diameters on a carbon-coated grid (FEI F20, 120 kV), compared with AlphaFold models of monomer and tetramer.

As for “shrimp hemocyanin (SHC) from Litopenaeus vannamei (from UniProt Q26180 1-662) (natural protein)”, the percent of SHC eluting between 158 and 440 kDa in assay [1] was determined as 80%. Further, the stoichiometry N in assay [2] is 4.
